Experimental findings from paper PMC5922973, “Topoisomerase VI senses and exploits both DNA crossings and bends to facilitate strand passage” (eLife, 2018) are described below.

The data set deals with the molecule itself. Briefly: SEC; topo VI co-expressed in E. coli and co-purified through His6-Top6B (Ni2+, SP/Q, TEV, Ni2+), then Sephacryl-300 HR gel filtration in 20 mM HEPES-KOH pH 7.5, 300 mM KCl, 10% glycerol; heterotetramer peak.

B1: Methanosarcina mazei topoisomerase VI subunit A (Top6A) (enzyme)
chain: MEGEKGSKTRKGDALAREKLLEIAEKIYNQFEEEVVPSVSLPSRTKANLEYSDESDVWVYGDRESERSAKTVKGAFQLLKTTYATDFLINEHLARNRGSTLRELYYISEGWDYAKFKEQGESDRLIEDLEILTSLQREYFHMRPEEDGATMFGPIEITEQTKRGERNIHCQKDVGEGGYQIPFNVENIEFQKHDASMIIAIETGGMYARLMENGFDEAYNAILVHLKGQPARSTRRIIKRMNEELGIPVAVFTDGDPWSYRIYASVAYGAIKSAHLSEFMATPAAKFLGLQPSDIVEYELSTDKLTEQDVSALRSELSDPRFESDYWKEQIQLQLDIGKKAEQQAFAGKGLDFVTEVYLPNRLKEMGMI
notes: Top6A of Methanosarcina mazei topo VI; the Top6A gene cloned into a polycistronic expression vector (Corbett et al., 2007); Two Top6A and two Top6B form the A2B2 heterotetramer; also called MmTop6A; A subunit of topo VI
As to B1, the binding result was “binds”.
